According to PMC10625565:

Molecular target: GST-PpROP4CA (G15V)
Assay: pull-down (MBP pull-down, anti-GST western blot, band quantification)
Settings: three replicates; parent: est. 0.17; read off a plot

## MBP-PpREN (wild type) R204L
  other: Protein ratio: 0.17
